# In the supplement of paper PMC7125110:
# ± gives the standard error. Variants at the floor of the assay were thinned out.
# B1: glmS ribozyme (parent)
# chain: AUAAAAGCGCCAGAACUACAGAAAUGUAGUUGACGAGGAGGAGGUUUAUCGAAUUUUCGGCGGAUGCCUCCAAA
# Variants of: B1
# Test: self-cleavage kobs at 2500 uM GlcN6P; higher = faster cleavage; RNA array
# Conditions: with glucosamine-6-phosphate
# Method in brief: (§1)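 A hybridised Cy3 probe tracked barcoded ribozyme variants, transcribed in situ by E. coli RNA polymerase on sequenced MiSeq chips, at 37 °C. The variants received 40 μM to 10 mM glucosamine-6-phosphate in HEPES/KCl/Mg(OAc)2 buffer. kobs came from decay fits and kcat and KM from weighted Michaelis–Menten fits.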
row,Variant,self-cleavage kobs at 2500 uM GlcN6P [s⁻¹]
1,A15U C16G C58A,0.000131 ± 2.8e-05
2,G7U G41A A64U,< 1e-05
3,G9U G29A G63A,< 1e-05
4,G35U C61U C70U,< 1e-05
5,C11A A33C A53C A64C,< 1e-05
6,A14G G32C C58A A64G,9.27e-05 ± 3e-05
7,G26U A48G,7.11e-05 ± 1.8e-05
8,G21A A48C,0.000242 ± 7.9e-05
9,C34A A48C A64U,< 1e-05
10,G32C G37U G40U U55G,< 1e-05
11,G38A U54C G63U,< 1e-05
12,A14C U31A U54C U57A,0.000121 ± 3.3e-05
13,U30G G62A A64U C71U,< 1e-05
14,G9U G40A U45G C50A,< 1e-05
15,C10U G29U A33G A39C U55G C70G,< 1e-05
16,U46C U57A C71U,4.35e-05 ± 1.6e-05
17,G13U U47A U56G,0.000242 ± 6e-05
18,A14C U54A U55A,0.00221 ± 0.00054
19,G29C G62A C70G,3.86e-05 ± 1.9e-05

row,Variant,self-cleavage kobs at 2500 uM GlcN6P [s⁻¹]
1,A15G C58U C70U,3.63e-05 ± 1.4e-05
2,A33U G43A U57C,< 1e-05
3,G9C G38C C67U,< 1e-05
4,G9U C10U C34U U46A,< 1e-05
5,G35C A53U G60U C61U,< 1e-05
6,A14C U54A G59C C71U,< 1e-05
7,A12C C16U U57A,4.57e-05 ± 1.5e-05
8,G43U G60A G66A C68G C70G,< 1e-05
9,G32C A33C G63U G66A,< 1e-05
10,C11U C34U G40C,< 1e-05
11,C8A C34A U69C,< 1e-05
12,G13A A52U U54C,< 1e-05
13,A14G A33U G43C G62A,< 1e-05
14,U30A A33U A39G G44C U47G A52U,< 1e-05
15,G41U U45C U56G,7.1e-05 ± 3.2e-05
16,A15U C61U G62U,< 1e-05
17,C16U U57A C70A,8.78e-05 ± 3.6e-05
18,A33C G41C U69G,< 1e-05

# Variants of: B1
# Test: self-cleavage kobs at 10000 uM GlcN6P; higher = faster cleavage; RNA array
# Conditions: with glucosamine-6-phosphate
# Method in brief: as §1
row,Variant,self-cleavage kobs at 10000 uM GlcN6P [s⁻¹]
1,C11A A33C A53C A64C,< 1e-05
2,A14C U31A U54C U57A,9.39e-05 ± 1.9e-05
3,G13U U47A U56G,0.000374 ± 6.2e-05
4,A14C U54A G59C C71U,< 1e-05
5,A12C C16U U57A,0.000157 ± 3.4e-05
6,C8A C34A U69C,< 1e-05
